From PMC314469, “Protein Interaction Networks by Proteome Peptide Scanning” (PLoS Biology, 2004)

T1: Yfr024 SH3 (LSB3_YEAST), P43603
T1 chain: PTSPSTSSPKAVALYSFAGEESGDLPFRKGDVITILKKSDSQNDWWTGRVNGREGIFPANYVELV

T2: Rvs167 SH3 (RV167_YEAST), P39743
T2 chain: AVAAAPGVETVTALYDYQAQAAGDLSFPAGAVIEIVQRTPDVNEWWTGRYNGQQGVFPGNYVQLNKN

T3: Boi2 SH3 (BOI2_YEAST), P39969
T3 chain: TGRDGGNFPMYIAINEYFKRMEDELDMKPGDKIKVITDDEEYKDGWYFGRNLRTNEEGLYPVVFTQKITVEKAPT

T4: Boi1 SH3 (BOI1_YEAST), P38041
T4 chain: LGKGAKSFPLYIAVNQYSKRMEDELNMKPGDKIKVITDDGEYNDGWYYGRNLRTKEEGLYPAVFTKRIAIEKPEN

T5: Yhr016c SH3 (YSC84_YEAST), P32793
T5 chain: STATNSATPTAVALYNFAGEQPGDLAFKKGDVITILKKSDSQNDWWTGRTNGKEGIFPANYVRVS


How the values were obtained:
Experiment in all cases: SPOT array
[1] = target: T1, Yfr024 SH3 (LSB3_YEAST), P43603
[2] = target: T2, Rvs167 SH3 (RV167_YEAST), P39743
[3] = target: T3, Boi2 SH3 (BOI2_YEAST), P39969
[4] = target: T4, Boi1 SH3 (BOI1_YEAST), P38041
[5] = target: T5, Yhr016c SH3 (YSC84_YEAST), P32793

normalised SPOT signal, Boehringer light units (BLU); mean over the file's lines of this peptide [1]	normalised SPOT signal, Boehringer light units (BLU); mean over the file's lines of this peptide [2]	normalised SPOT signal, Boehringer light units (BLU); mean over the file's lines of this peptide [3]	normalised SPOT signal, Boehringer light units (BLU); mean over the file's lines of this peptide [4]	normalised SPOT signal, Boehringer light units (BLU); mean over the file's lines of this peptide [5]	Binder
3720	189	574	1070	1410	NWSPNIPLRYSDFA [YOL017W 129-142]
114	79.4	53.8	43.5	156	NYQPKPPIREGNGP [YLR213C 97-110]
254	176	40.9	182	79.4	NYIPPDPPKDIQLN [YBR216C 239-252]
29100	28000	4640	3860	50300	NYAPRLPRRETSSS [YIL061C 231-244]
933	13.1	31	51.2	729	PASPTPPYRSRETE [YLR457C 288-301]
5040	57.6	82.5	3190	1930	PAFPEYPMRRDTLY [YMR058W 448-461]
26300	387	46.6	45.3	9290	NTVPSTPSRSNSVL [YKL038W 137-150]
19900	1900	1310	899	5260	NVQPRKPSRVHSRN [YFR022W 634-647]
63	33.4	8.5	72.9	271	NVDPASPWRHELLS [YGL107C 76-89]
